According to the Human Domainome abundance scans (Beltran et al. 2025):
± gives the uncertainty stated by the source.

B1: POU domain, class 2, transcription factor 3, residues 186 to 260; numbered along this chain, Q9UKI9 (parent)
chain: SDLEELEKFAKTFKQRRIKLGFTQGDVGLAMGKLYGNDFSQTTISRFEALNLSFKNMCKLKPLLEKWLNDAESSP

Variants of: B1
Assay: abundance fitness (aPCA) (normalised: wild type 0, dead -1); higher = more abundant; growth selection in yeast, the domain comes from the species named
Conditions: Homo sapiens

Question: Which abundance fitness does the source give for SDLEELEKFAKTFKQRRIKLGFTQGDVGLAMGKLYGNDFSQTTISRFEALNLSFKNMCKLKPALEKWLNDAESSP [L63A] here?
Answer: The abundance fitness was 0.024 ± 0.039.

Question: Which abundance fitness does the source give for SDLEELEKFAKTFKQRRIKLGFTQGDVGLAMGKLYGNDFSQTTISRFEALNLSFKNMCKLKPCLEKWLNDAESSP [L63C] here?
Answer: The abundance fitness was -0.031 ± 0.054.

Question: With SDLEELEKFAKTFKQRRIKLGFTQGDVGLAMGKLYGNDFSQTTISRFEALNLSFKNMCKLKPFLEKWLNDAESSP [L63F] as the variant, how does the abundance fitness read?
Answer: The abundance fitness was -0.221 ± 0.079.

Question: For SDLEELEKFAKTFKQRRIKLGFTQGDVGLAMGKLYGNDFSQTTISRFEALNLSFKNMCKLKPELEKWLNDAESSP [L63E], which abundance fitness is on record?
Answer: Its abundance fitness is -0.127 ± 0.039.

Question: With SDLEELEKFAKTFKQRRIKLGFTQGDVGLAMGKLYGNDFSQTTISRFEALNLSFKNMTKLKPLLEKWLNDAESSP [C58T] as the variant, how does the abundance fitness read?
Answer: The abundance fitness was -0.09 ± 0.054.

Question: Which abundance fitness does the source give for SDLEELEKFAKTFKQRRIKLGFTQGDVGLAMGKLYGNDFSQTTISRFEALNLSFKNMWKLKPLLEKWLNDAESSP [C58W] here?
Answer: The abundance fitness was 0.032 ± 0.035.

Question: With SDLEELEKFAKTFKQRRIKLGFTQGDVGLAMGKLYGNDFSQTTISRFEALNLSFKNMVKLKPLLEKWLNDAESSP [C58V] as the variant, how does the abundance fitness read?
Answer: Its abundance fitness is -0.019 ± 0.033.

Question: For SDLEELEKFAKTFKQRRIKLGFTQGDVGLAMGKLYGNDFSQTTISRFEALNLSFKNMCHLKPLLEKWLNDAESSP [K59H], which abundance fitness is on record?
Answer: Its abundance fitness is -0.015 ± 0.21.

Question: For SDLEELEKFAKTFKQRRIKLGFTQGDVGLAMGKLYGNDFSQTTISRFEALNLSFKNMCWLKPLLEKWLNDAESSP [K59W], which abundance fitness is on record?
Answer: The abundance fitness was -0.129 ± 0.038.

Question: For SDLEELEKFAKTFKQRRIKLGFTQGDVGLAMGKLYGNDFSQTTISRFEALNLSFKNMCVLKPLLEKWLNDAESSP [K59V], which abundance fitness is on record?
Answer: The abundance fitness was -0.086 ± 0.032.

Question: With SDLEELEKFAKTFKQRRIKLGFTQGDVGLAMGKLYGNDFSQTTISRFEALNLSFKNMCPLKPLLEKWLNDAESSP [K59P] as the variant, how does the abundance fitness read?
Answer: The abundance fitness was -0.733 ± 0.081.

Question: For SDLEELEKFAKTFKQRRIKLGFTQGDVGLAMGKLYGNDFSQTTISRFEALNLSFKNMCGLKPLLEKWLNDAESSP [K59G], which abundance fitness is on record?
Answer: The abundance fitness was -0.086 ± 0.027.

Question: For SDLEELEKFAKTFKQRRIKLGFTQGDVGLAMGKLYGNDFSQTTISRFEALNLSFKNMCNLKPLLEKWLNDAESSP [K59N], which abundance fitness is on record?
Answer: The abundance fitness was -0.026 ± 0.061.

Question: Which abundance fitness does the source give for SDLEELEKFAKTFKQRRIKLGFTQGDVGLAMGKLYGNDFSQTTISRFEALNLSFKNMCDLKPLLEKWLNDAESSP [K59D] here?
Answer: Its abundance fitness is -0.039 ± 0.055.

Question: Which abundance fitness does the source give for SDLEELEKFAKTFKQRRIKLGFTQGDVGLAMGKLYGNDFSQTTISRFEALNLSFKNMCALKPLLEKWLNDAESSP [K59A] here?
Answer: The abundance fitness was -0.013 ± 0.03.

Question: For SDLEELEKFAKTFKQRRIKLGFTQGDVGLAMGKLYGNDFSQTTISRFEALNLSFKNMCQLKPLLEKWLNDAESSP [K59Q], which abundance fitness is on record?
Answer: Its abundance fitness is -0.03 ± 0.047.

Question: For SDLEELEKFAKTFKQRRIKLGFTQGDVGLAMGKLYGNDFSQTTISRFEALNLSFKNMCFLKPLLEKWLNDAESSP [K59F], which abundance fitness is on record?
Answer: The abundance fitness was 0.06 ± 0.065.

Question: With SDLEELEKFAKTFKQRRIKLGFTQGDVGLAMGKLYGNDFSQTTISRFEALNLSFKNMCMLKPLLEKWLNDAESSP [K59M] as the variant, how does the abundance fitness read?
Answer: The abundance fitness was -0.056 ± 0.043.

Question: For SDLEELEKFAKTFKQRRIKLGFTQGDVGLAMGKLYGNDFSQTTISRFEALNLSFKNMCSLKPLLEKWLNDAESSP [K59S], which abundance fitness is on record?
Answer: The abundance fitness was -0.033 ± 0.036.

Question: Which abundance fitness does the source give for SDLEELEKFAKTFKQRRIKLGFTQGDVGLAMGKLYGNDFSQTTISRFEALNLSFKNMCILKPLLEKWLNDAESSP [K59I] here?
Answer: The abundance fitness was -0.037 ± 0.1.

Question: With SDLEELEKFAKTFKQRRIKLGFTQGDVGLAMGKLYGNDFSQTTISRFEALNLSFKNMCTLKPLLEKWLNDAESSP [K59T] as the variant, how does the abundance fitness read?
Answer: Its abundance fitness is -0.007 ± 0.043.

Question: With SDLEELEKFAKTFKQRRIKLGFTQGDVGLAMGKLYGNDFSQTTISRFEALNLSFKNMCELKPLLEKWLNDAESSP [K59E] as the variant, how does the abundance fitness read?
Answer: Its abundance fitness is 0.053 ± 0.037.

Question: For SDLEELEKFAKTFKQRRIKLGFTQGDVGLAMGKLYGNDFSQTTISRFEALNLSFKNMCKLKKLLEKWLNDAESSP [P62K], which abundance fitness is on record?
Answer: Its abundance fitness is -0.036 ± 0.047.

Question: For SDLEELEKFAKTFKQRRIKLGFTQGDVGLAMGKLYGNDFSQTTISRFEALNLSFKNMCKLKTLLEKWLNDAESSP [P62T], which abundance fitness is on record?
Answer: The abundance fitness was -0.163 ± 0.051.

Question: Which abundance fitness does the source give for SDLEELEKFAKTFKQRRIKLGFTQGDVGLAMGKLYGNDFSQTTISRFEALNLSFKNMCKLKFLLEKWLNDAESSP [P62F] here?
Answer: The abundance fitness was -0.191 ± 0.1.

Question: With SDLEELEKFAKTFKQRRIKLGFTQGDVGLAMGKLYGNDFSQTTISRFEALNLSFKNMCKLKRLLEKWLNDAESSP [P62R] as the variant, how does the abundance fitness read?
Answer: Its abundance fitness is -0.149 ± 0.032.

Question: For SDLEELEKFAKTFKQRRIKLGFTQGDVGLAMGKLYGNDFSQTTISRFEALNLSFKNMCKLKALLEKWLNDAESSP [P62A], which abundance fitness is on record?
Answer: The abundance fitness was -0.16 ± 0.039.

Question: With SDLEELEKFAKTFKQRRIKLGFTQGDVGLAMGKLYGNDFSQTTISRFEALNLSFKNMCKLKNLLEKWLNDAESSP [P62N] as the variant, how does the abundance fitness read?
Answer: The abundance fitness was -0.24 ± 0.13.

Question: Which abundance fitness does the source give for SDLEELEKFAKTFKQRRIKLGFTQGDVGLAMGKLYGNDFSQTTISRFEALNLSFKNMCKLKELLEKWLNDAESSP [P62E] here?
Answer: The abundance fitness was -0.118 ± 0.041.

Question: Which abundance fitness does the source give for SDLEELEKFAKTFKQRRIKLGFTQGDVGLAMGKLYGNDFSQTTISRFEALNLSFKNMCKLKYLLEKWLNDAESSP [P62Y] here?
Answer: Its abundance fitness is -0.624 ± 0.24.

Question: With SDLEELEKFAKTFKQRRIKLGFTQGDVGLAMGKLYGNDFSQTTISRFEALNLSFKNMCKLKILLEKWLNDAESSP [P62I] as the variant, how does the abundance fitness read?
Answer: The abundance fitness was -0.082 ± 0.097.

Question: Which abundance fitness does the source give for SDLEELEKFAKTFKQRRIKLGFTQGDVGLAMGKLYGNDFSQTTISRFEALNLSFKNMCKLKWLLEKWLNDAESSP [P62W] here?
Answer: The abundance fitness was -0.365 ± 0.04.

Question: For SDLEELEKFAKTFKQRRIKLGFTQGDVGLAMGKLYGNDFSQTTISRFEALNLSFKNMCKLKQLLEKWLNDAESSP [P62Q], which abundance fitness is on record?
Answer: Its abundance fitness is -0.167 ± 0.054.

Question: With SDLEELEKFAKTFKQRRIKLGFTQGDVGLAMGKLYGNDFSQTTISRFEALNLSFKNMCKLKCLLEKWLNDAESSP [P62C] as the variant, how does the abundance fitness read?
Answer: The abundance fitness was -0.201 ± 0.062.

Question: With SDLEELEKFAKTFKQRRIKLGFTQGDVGLAMGKLYGNDFSQTTISRFEALNLSFKNMCKLKVLLEKWLNDAESSP [P62V] as the variant, how does the abundance fitness read?
Answer: The abundance fitness was -0.128 ± 0.036.

Question: Which abundance fitness does the source give for SDLEELEKFAKTFKQRRIKLGFTQGDVGLAMGKLYGNDFSQTTISRFEALNLSFKNMCKLKGLLEKWLNDAESSP [P62G] here?
Answer: The abundance fitness was -0.085 ± 0.031.

Question: For SDLEELEKFAKTFKQRRIKLGFTQGDVGLAMGKLYGNDFSQTTISRFEALNLSFKNMCKLKHLLEKWLNDAESSP [P62H], which abundance fitness is on record?
Answer: The abundance fitness was -0.025 ± 0.12.
